Results published in patent US20210238252A1.

Biological target: Fc receptor CD16 (UniProt P08637)
Assay: cell-based or functional assay

Fc receptor CD16, sequence (P08637 17-254 limits assumed): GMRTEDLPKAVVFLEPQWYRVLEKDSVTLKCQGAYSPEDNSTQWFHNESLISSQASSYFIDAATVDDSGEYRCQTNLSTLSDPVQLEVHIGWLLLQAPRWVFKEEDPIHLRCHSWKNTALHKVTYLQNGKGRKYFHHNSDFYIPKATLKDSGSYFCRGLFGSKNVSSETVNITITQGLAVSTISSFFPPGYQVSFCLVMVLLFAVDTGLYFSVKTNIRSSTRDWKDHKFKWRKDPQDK

## IgGb12 (antibody)
  IC50, ADCC: killing of BaL-infected CEM.NKR.CCR5+ Luc cells by KHYG-1 CD16+ NK cells: 0.0662 µg/mL
